The text below walks through data of article PMC3913127 (Nature immunology, 2012).

A word on the Kd: it is the equilibrium constant for the complex coming apart. For orientation: koff means a measure of how fast the partners let go of each other. A low value points to slow dissociation. The kon is the rate constant with which the complex forms. A high value points to fast association.

In this assay the target is …-loaded H-2D^d (mouse | ). In words: SPR. For orientation: SPR reads the build-up and loss of mass on a sensor chip optically.

B1: Ly49A EC (entire extracellular domain of Ly49A, residues 67-262) (receptor, mouse (C57BL/6), UniProt P20937 67-262, looked up)
chain: KIFQYDQQKNCEEFLNHHNNCSNMQSDINLKDEMLKNKSIECDLLESLNRDQNRLYNKTKTVLDSLQHTGRGDKVYWFCYGMKCYYFVMDRKTWSGCKQACQSSSLSLLKIDDEDELKFLQLVVPSDSCWVGLSYDNKKKDWAWIDNRPSKLALNTGKYNIRDGGCMLLSKTRLDNGNCDQVFICICGKRLDKFPH
modifications: biotin (biotinylated Ly49A EC, captured on streptavidin)
For B1, the Kd worked out at 2050 ± 70 nM, the koff is 0.00338 s⁻¹ and the kon worked out at 1650 M⁻¹ s⁻¹.
